# Reference: patent US20190135915A1 (SYNTIMMUNE, published 2019)
# Positions count from the first letter of the chain named. Names and notes keep the numbering of the source.
# B1: G49_H9.3/Vκ3 (antibody, V domains shown)
# VH: EVQLVESGGGLVKPGGSLKLSCAASGFTFSDYGMHWVRQAPGKGLEWVAYISSGSSTIYYADTVKGRFTISRDNAKNTLYLQMNSLRAEDTAMYYCARFDSLSTVGDYWGQGTSVTVSS
# VL: DIVMTQSPDSLSASVGDRVTITCKASQSVSNDVAWYQQKPGQPPKLLIYYASNRYTGVPDRFSGSGYGTDFTLTISSLQAEDVAVYFCQQDYSSLTFGQGTKLEIK
# notes: Bivalent IgG4 with S241P, human kappa; also called SYNT002-21; G49_H9.3 VH1
# B2: G15_C3/Vκ3 (antibody, V domains shown)
# VH: B1 VH with F99G, D100E, L102T, S103T
# VL: B1 VL
# notes: Bivalent IgG4 with S241P, human kappa; also called SYNT002-3; G15_C3 VH1
# B3: G52_G9/Vκ3 (antibody, V domains shown)
# VH: B1 VH with S101T, L102P
# VL: B1 VL
# notes: Bivalent IgG4 with S241P, human kappa; also called G52_G9 VH1
# B4: G47_B10/Vκ3 (antibody, V domains shown)
# VH: B1 VH with F99A, D100E, L102T, S103T
# VL: B1 VL
# notes: Bivalent IgG4 with S241P, human kappa; also called SYNT002-8; G47_B10VH1_Vκ3
# B5: G54_D11/Vκ3 (antibody, V domains shown)
# VH: B1 VH with S101T, L102P, S103A
# VL: B1 VL
# notes: Bivalent IgG4 with S241P, human kappa; also called SYNT002-17; G54_D11 VH1
# B6: G49_H9.5/Vκ3 (antibody, V domains shown)
# VH: B1 VH with F99L, D100E, S101A, L102V, T104A
# VL: B1 VL
# notes: Bivalent IgG4 with S241P, human kappa; also called G49_H9.5 VH1
# B7: G47_H6/Vκ3 (antibody, IgG4, V domains shown)
# VH: B1 VH with D100S
# VL: B1 VL
# notes: IgG4 with S241P, human kappa; also called G47_H6 VH1
# Assays:
# [1] = biological target: T1, monomeric His-tagged hFcRn (human, UniProt P55899 24-297; P61769 21-119, limits assumed); assay: SPR Biacore 3000, antibody amine-coupled to CM5, His-tagged hFcRn analyte, pH 6.0, 25 C, 1:1 Langmuir
# T1 construct: also called human FcRn; not shown: His tag
# Description: (§1) The coupling was performed by injecting 2 μg/ml of each protein into 10 mM sodium acetate, pH 4.5 (GE Healthcare), using the amine coupling kit (GE Healthcare). HBS-P buffer pH 7.4 (0.01 M HEPES, 0.15 M NaCl, 0.005% surfactant P20) or phosphate buffer pH 6.0 (67 mM phosphate buffer, 0.15 M NaCl, 0.005% Tween 20) were used as running buffer and dilution buffer. […] All SPR experiments were conducted at 25° C. with a flow rate of 40 μl/min Binding data were zero-adjusted, and the reference cell value subtracted. The Langmuir 1:1 ligand binding model provided by the BIAevaluation software (version 4.1) was used to determine the binding kinetics. The closeness of the fit is described by the statistical value χ².
# [2] = biological target: T2, recombinant human FcRn (Sino Biological Inc. Cat. No. CT009-H08H) (human, UniProt P55899 24-297; P61769 21-119); assay: competition ELISA, pH 6.0: test IgG4 (stable NS0) titrated against fixed biotinylated murine parent antibody on recombinant human FcRn; streptavidin-HRP/TMB, OD450 [bottom panel]
# T2 construct: also called immobilized FcRn
# Description: (§2) The IgG4 antibodies were tested for antigen binding in a competition ELISA at pH 6.0 and pH 7.4. A Nunc Immuno MaxiSorp 96 well flat bottom microtitre plate (Fisher, cat. no. DIS-971-030J) was pre-coated with 1 μg/ml of an FcRn antibody specific for an IgG-binding epitope distinct from the albumin-binding region overnight at pH 7.4. The following day, 1 μg/ml recombinant human FcRn (Sino Biological Inc. cat. no. CT009-H08H) diluted in PBS pH 7.4 was added to the wells and incubated for 1 hour at 37° C. After washing the plates 3× with PBST pH 7.4, the plates were blocked with PBSM pH 7.4 for 1 hour at 37° C. From this point onwards, all wash and incubation steps were performed at the chosen assay pH (pH 6.0 or 7.4). […] The reaction was stopped with 3 M HCl, absorbance read at 450 nm on a Dynex Technologies MRX TC II plate reader and the binding curves plotted.
# (§3) NS0 produced humanized affinity matured IgGs were used in all assays other than G50_C10/Vκ3), which was purified from transiently expressing HEK cells.
# [3] = biological target: T3, FcRn (analyte in the Biacore T200 study) (human, UniProt P55899 24-297; P61769 21-119, limits assumed); assay: SPR Biacore T200, antibody amine-coupled to CM5, FcRn analyte, 1:1 model; pH not stated
# T3 construct: also called human FcRn
# Description: (§4) Antibodies were immobilized onto a Series S CM5 sensor chip surface using standard amine coupling chemistry and analyte (FcRn) flowed over the surface. A 2-fold dilution range was selected from 50-0.01 nM FcRn. The association phase of FcRn analyte was monitored for 450 seconds, and dissociation was initially measured for either 250 or 2500 seconds, at 40 μl/min Fc1 was a reference channel and was subtracted from other flow cells to correct for non-specific binding. […] Kinetic values are based on a 1:1 binding model (Table 5).
# [4] = biological target: T2, recombinant human FcRn (Sino Biological …); assay: competition ELISA, pH 7.4: test IgG4 (stable NS0) titrated against fixed biotinylated murine parent antibody on recombinant human FcRn; streptavidin-HRP/TMB, OD450 [bottom panel]
# Description: as §2, §3
# [5] = biological target: T3, FcRn (analyte in the Biacore T200 study); assay: SPR Biacore T200, antibody amine-coupled to CM5, FcRn analyte, 1:1 model; chip with the three best variants (repeat run, dissociation 4500 s per paragraph 156); pH not stated
# Description: as §4
# [6] = biological target: T2, recombinant human FcRn (Sino Biological …); assay: competition ELISA, pH 6.0: test IgG4 (stable NS0) titrated against fixed biotinylated murine parent antibody on recombinant human FcRn; streptavidin-HRP/TMB, OD450 [middle panel]
# Description: as §2, §3
# [7] = biological target: T1, monomeric His-tagged hFcRn; assay: SPR Biacore 3000, antibody amine-coupled to CM5, His-tagged hFcRn analyte, pH 7.4, 25 C, 1:1 Langmuir
# Description: as §1
# The kinetic rate constants were obtained using a simple first-order (1:1) Langmuir bimolecular interaction model. The kinetic values represent the average of duplicates. The χ² (chi-square) values represent the fit to the binding model used.
# [8] = biological target: T2, recombinant human FcRn (Sino Biological …); assay: competition ELISA, pH 7.4: test IgG4 (stable NS0) titrated against fixed biotinylated murine parent antibody on recombinant human FcRn; streptavidin-HRP/TMB, OD450 [middle panel]
# Description: as §2, §3
# [9] = biological target: T2, recombinant human FcRn (Sino Biological …); assay: competition ELISA, pH 6.0: test IgG4 (stable NS0) titrated against fixed biotinylated murine parent antibody on recombinant human FcRn; streptavidin-HRP/TMB, OD450 [top panel]
# Description: as §2, §3
# [10] = biological target: T2, recombinant human FcRn (Sino Biological …); assay: competition ELISA, pH 7.4: test IgG4 (stable NS0) titrated against fixed biotinylated murine parent antibody on recombinant human FcRn; streptavidin-HRP/TMB, OD450 [top panel]
# Description: as §2, §3
# [11] = biological target: T2, recombinant human FcRn (Sino Biological …); assay: competition ELISA, pH 7.4: test IgG4 (transient HEK) titrated against fixed biotinylated murine parent antibody on recombinant human FcRn; streptavidin-HRP/TMB, OD450
# Description: as §2
# [12] = biological target: T3, FcRn (analyte in the Biacore T200 study); assay: SPR Biacore T200, antibody amine-coupled to CM5, FcRn analyte, 1:1 model; chip with the three best variants (repeat run, dissociation 4500 s per paragraph 156); pH not stated; repeat run of the three best variants, dissociation 4500 s
# Description: as §4
# [13] = biological target: T2, recombinant human FcRn (Sino Biological …); assay: competition ELISA, pH 6.0; competitor biotinylated parent murine antibody; captured recombinant human FcRn; HEK-expressed IgG4
# Description: as §2
# [14] = biological target: T2, recombinant human FcRn (Sino Biological …); assay: competition ELISA, pH 6.0; competitor biotinylated parent murine antibody; captured recombinant human FcRn; NS0-expressed IgG4
# Description: as §2, §3
# [15] = biological target: T2, recombinant human FcRn (Sino Biological …); assay: competition ELISA, pH 7.4; competitor biotinylated parent murine antibody; captured recombinant human FcRn; NS0-expressed IgG4
# Description: as §2, §3
# [16] = biological target: T2, recombinant human FcRn (Sino Biological …); assay: competition ELISA, pH 7.4; competitor biotinylated parent murine antibody; captured recombinant human FcRn; HEK-expressed IgG4
# Description: as §2
# [17] = biological target: T3, FcRn (analyte in the Biacore T200 study); assay: SPR Biacore T200; KD of humanized parent VH1/Vκ1 divided by KD of the test antibody on the same chip
# Description: as §4
# T3 sequence (P55899 24-297 limits assumed, chain 1 of 2): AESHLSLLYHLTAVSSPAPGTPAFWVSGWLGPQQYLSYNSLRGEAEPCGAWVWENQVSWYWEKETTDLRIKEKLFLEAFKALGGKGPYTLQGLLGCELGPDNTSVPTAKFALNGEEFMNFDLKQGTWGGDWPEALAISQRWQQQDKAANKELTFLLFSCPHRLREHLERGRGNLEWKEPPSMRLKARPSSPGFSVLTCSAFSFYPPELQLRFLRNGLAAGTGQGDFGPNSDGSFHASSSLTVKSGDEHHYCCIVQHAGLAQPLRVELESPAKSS
# T3 sequence (P61769 21-119 limits assumed, chain 2 of 2): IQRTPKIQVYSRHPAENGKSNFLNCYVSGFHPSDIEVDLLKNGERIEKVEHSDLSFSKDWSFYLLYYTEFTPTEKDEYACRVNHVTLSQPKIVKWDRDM
# T2 sequence (P55899 24-297 limits assumed, chain 1 of 2): as the sequence (P55899 24-297 limits assumed, chain 1 of 2) above
# T2 sequence (P61769 21-119 limits assumed, chain 2 of 2): as the sequence (P61769 21-119 limits assumed, chain 2 of 2) above
# T1 sequence (P55899 24-297 limits assumed, chain 1 of 2): as the sequence (P55899 24-297 limits assumed, chain 1 of 2) above
# T1 sequence (P61769 21-119 limits assumed, chain 2 of 2): as the sequence (P61769 21-119 limits assumed, chain 2 of 2) above
binder,measurement,setting,value
B1,Kd,[1],1.7 nM
same,IC50 (read off the curve),[2],~0.2 µg/mL
same,Kd,[3],1.11 nM
same,IC50 (read off the curve),[4],~0.5 µg/mL
B2,Kd,[1],0.7 nM
same,Kd,[5],0.39 nM
same,IC50 (read off the curve),[6],~0.3 µg/mL
same,Kd,[7],7.8 nM
same,IC50 (read off the curve),[8],~0.5 µg/mL
B3,Kd,[3],1.99 nM
B4,Kd,[1],0.6 nM
same,IC50 (read off the curve),[9],~0.3 µg/mL
same,Kd,[3],0.33 nM
same,IC50 (read off the curve),[10],~0.5 µg/mL
same,IC50 (read off the curve),[11],~0.2 µg/mL
same,Kd,[12],0.24 nM
same,Kd,[7],4 nM
B5,IC50 (read off the curve),[2],~0.3 µg/mL
same,Kd,[3],3.71 nM
same,Kd,[7],34 nM
B6,Kd,[3],1.21 nM
same,Average relative IC50 (relative to humanized parent),[13],0.8
same,Average relative IC50 (relative to humanized parent),[14],0.8
same,Average relative IC50 (relative to humanized parent),[15],0.87
B7,Kd,[3],2.09 nM
same,koff,[3],0.000814 s⁻¹
same,kon,[3],389000 M⁻¹ s⁻¹
same,Average relative IC50 (relative to humanized parent),[16],0.7
same,Average relative IC50 (relative to humanized parent),[13],0.8
same,Average relative IC50 (relative to humanized parent),[14],0.84
same,Average relative IC50 (relative to humanized parent),[15],0.89
same,Fold difference in KD,[17],1.2 fold
